B1: TPR t1 (parent)
chain: GACCAAUCUGCCCUCAGAGCUCGAGAACAUCUUCGGAUGCAGAGGAGGCAGGCUUCGGUGGCGCGAUAGCGCCAACGUCCUCAACCUCCAAUGCAUCCCACCACAUGAUGAUGCCUGAAGAGCCUUGGUUUUUUG

Variants of: B1
Experiment: polymerase ribozyme fitness, log enrichment relative to wild type (log ratio); higher = more active; in vitro selection for triplet polymerase activity
Summary of the method: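 A heterodimeric triplet polymerase ribozyme had each of its subunits mutagenized by PCR into a library, which was transcribed. One round of in vitro selection, done in triplicate, annealed each library with a biotinylated primer, its partner subunit and triplets, then incubated it frozen at −7 °C before gel excision of extended constructs, streptavidin-bead capture and RT-PCR. Fitness is the logarithm of genotype enrichment relative to wild-type enrichment, based on Illumina sequencing of inputs and outputs and inverse-variance-weighted replicate averages. A base-2 logarithm is used, and genotypes were kept only with ≥10 input reads and ≥1 read per output.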
In the case of GACCAAUCUGCCCUCAGAGCUCGAGAACAUCUUCGGAUGCAGAGGAGGCAGGCUUCGGUGGCGCGAUAGCGCCAACGUCCUCAACCUCUAAUGCAUCCCACCACAUGGUGAUGUCUGAAGAGCCUUGGUUUUUUG [C89U A108G C114U], the “polymerase ribozyme fitness (log ratio)” value is reported as -4.44.
With GACCAAUCUGCCCUCAGAGCUCGAGAACAUCUUCGGAUGCAGAGGAGGCAGGCUUCGGUGGCGCGAUAGCGCCAACGUCCUCAACCUCGAAUGCAUCCCACCACAUGAUGAUGCCUGAAGAGCCUUUGUUUUUUG [C89G G127U] the “polymerase ribozyme fitness (log ratio)” value was -2.9.
With GACCAAUCUGCCCUCAGAGCUCGAGAACAUCUUCGGAUGCAGAGGAGGCAGGCUUCGGUGGCGCGAUAGCGCCAACGUCCUCAACCUCGAAAGCAUCCCACCACAUGAUGAUGCCUGAAGAACCUUGGUUUUUUG [C89G U92A G122A] the “polymerase ribozyme fitness (log ratio)” value was -4.41.
In the case of GACCAAUCUGCCCUCAGAGCUCGAGAACAUCUUCGGAUGCAGAGGAGGCAGGCUUCGGUGGCGCGAUAGCGCCAACGUCCUCAACCUCGAAUAGAUCCCACCACAUGAUGAUGCCUGAAGAGCGUUGCUUUUUUG [C89G G93A C94G C124G G128C], the “polymerase ribozyme fitness (log ratio)” value is reported as -7.66.
With GACCAAUCUGCCCUCAGAGCUCGAGAACAUCUUCGGAUGCAGAGGAGGCAGGCUUCGGUGGCGCGAUAGCGCCAACGUCCUCAACCUCCCAUGCAUACGACCACAUGAUGAUACCUGAAGAUCCUUGGUUUUUUG [A90C C97A C99G G113A G122U] the “polymerase ribozyme fitness (log ratio)” value was -7.3.
With GACCAAUCUGCCCUCAGAGCUCGAGAACAUCUUCGGAUGCAGAGGAGGCAGGCUUCGGUGGCGCGAUAGCGCCAACGUCCUCAACCUCGAAUGCAUCCCACCACAUGAUGAUGCCUGAAGAGCCUAGGUUUUUUG [C89G U126A] the “polymerase ribozyme fitness (log ratio)” value was -2.85.
In the case of GACCAAUCUGCCCUCAGAGCUCGAGAACAUCUUCGGAUGCAGAGGAGGCAGGCUUCGGUGGCGCGAUAGCGCCAACGUCCUCAACCUCGAAUGCAUCCCACCACAUGAUGAUGCCUGAAGAGGCUUGGUUUUUUG [C89G C123G], the “polymerase ribozyme fitness (log ratio)” value is reported as 0.45.
In the case of GACCAAUCUGCCCUCAGAGCUCGAGAACAUCUUCGGAUGCAGAGGAGGCAGGCUUCGGUGGCGCGAUAGCGCCAACGUCCUCAACCUCGGAUGCAUCCCACCACAUGAUGAUGCCUGAAGAGCCUUCGUUUUUUG [C89G A90G G127C], the “polymerase ribozyme fitness (log ratio)” value is reported as -2.22.
In the case of GACCAAUCUGCCCUCAGAGCUCGAGAACAUCUUCGGAUGCAGAGGAGGCAGGCUUCGGUGGCGCGAUAGCGCCAACGUCCUCAACCUCUAAUGCAUCCCAACACAUGAUGAUGCCUGAAGAGCCUUGGUUUUUUG [C89U C101A], the “polymerase ribozyme fitness (log ratio)” value is reported as -1.39.
In the case of GACCAAUCUGCCCUCAGAGCUCGAGAACAUCUUCGGAUGCAGAGGAGGCAGGCUUCGGUGGCGCGAUAGCGCCAACGUCCUCAACCUCGAAUGGAUCCCACCACAUGAUGAUGCCUGAAGAGCCUUGGUUUUUUG [C89G C94G], the “polymerase ribozyme fitness (log ratio)” value is reported as -3.06.
With GACCAAUCUGCCCUCAGAGCUCGAGAACAUCUUCGGAUGCAGAGGAGGCAGGCUUCGGUGGCGCGAUAGCGCCAACGUCCUCAACCUCGAAUGCAUCCCACCACAUGAUGAUGCCUGAAGAGCAUUGGUUUUUUG [C89G C124A] the “polymerase ribozyme fitness (log ratio)” value was 0.877.
With GACCAAUCUGCCCUCAGAGCUCGAGAACAUCUUCGGAUGCAGAGGAGGCAGGCUUCGGUGGCGCGAUAGCGCCAACGUCCUCAACCUCUGAUGCAUCCCACCACAUGAUGAUGCCUGAAGAGCCUUGGUUUUUUG [C89U A90G] the “polymerase ribozyme fitness (log ratio)” value was 0.141.
With GACCAAUCUGCCCUCAGAGCUCGAGAACAUCUUCGGAUGCAGAGGAGGCAGGCUUCGGUGGCGCGAUAGCGCCAACGUCCUCAACCUCGAAUGCAUCCCACCACAUGAUGAUGCCUGAAGAGCCAUGGUUUUUUG [C89G U125A] the “polymerase ribozyme fitness (log ratio)” value was -2.07.
For GACCAAUCUGCCCUCAGAGCUCGAGAACAUCUUCGGAUGCAGAGGAGGCAGGCUUCGGUGGCGCGAUAGCGCCAACGUCCUCAACCUCUAAUGCAUCCCACCACAUGAUGAUGCCUGAAGAGCAUUGGUUUUUUG [C89U C124A], the “polymerase ribozyme fitness (log ratio)” value was 0.152.
With GACCAAUCUGCCCUCAGAGCUCGAGAACAUCUUCGGAUGCAGAGGAGGCAGGCUUCGGUGGCGCGAUAGCGCCAACGUCCUCAACCUCUAAUGCAUCCCACCACAUGAUGAUGCCUGAAGAGCUUUGGUUUUUUG [C89U C124U] the “polymerase ribozyme fitness (log ratio)” value was 1.37.
With GACCAAUCUGCCCUCAGAGCUCGAGAACAUCUUCGGAUGCAGAGGAGGCAGGCUUCGGUGGCGCGAUAGCGCCAACGUCCUCAACCUCUAAUGCAUCCCACCAAAUGAUGAUGCCUGAAGAGCCUUGGUUUUUUG [C89U C104A] the “polymerase ribozyme fitness (log ratio)” value was -1.84.
With GACCAAUCUGCCCUCAGAGCUCGAGAACAUCUUCGGAUGCAGAGGAGGCAGGCUUCGGUGGCGCGAUAGCGCCAACGUCCUCAACCUCUAAUGCAUCCCACCACAUGAUGAUGCCUAAAGAGCCUUGGAUUUUUG [C89U G117A U129A] the “polymerase ribozyme fitness (log ratio)” value was -3.55.
In the case of GACCAAUCUGCCCUCAGAGCUCGAGAACAUCUUCGGAUGCAGAGGAGGCAGGCUUCGGUGGCGCGAUAGCGCCAACGUCCUCAACCUCUAAUGCAUCCCACCACUUGAUGAUGCCUGAAGAGCCUUGGUUUUUUG [C89U A105U], the “polymerase ribozyme fitness (log ratio)” value is reported as -2.8.
With GACCAAUCUGCCCUCAGAGCUCGAGAACAUCUUCGGAUGCAGAGGAGGCAGGCUUCGGUGGCGCGAUAGCGCCAACGUCCUCAACCUCGAAUGCAUCCCACCACAUGAUGAUCCCUGAAGAUCCUUGGUUUUUUG [C89G G113C G122U] the “polymerase ribozyme fitness (log ratio)” value was -2.99.
In the case of GACCAAUCUGCCCUCAGAGCUCGAGAACAUCUUCGGAUGCAGAGGAGGCAGGCUUCGGUGGCGCGAUAGCGCCAACGUCCUCAACCUCGAAUGCAUCCCACCACAUGAAGAUGCCUGAAGAGCCUUGGUUUUUUG [C89G U109A], the “polymerase ribozyme fitness (log ratio)” value is reported as -5.37.
With GACCAAUCUGCCCUCAGAGCUCGAGAACAUCUUCGGAUGCAGAGGAGGCAGGCUUCGGUGGCGCGAUAGCGCCAACGUCCUCAACCUCGAAUGCAUCCCACCACAUGAGGAUGCCUGAAGAGCCUUGGUUUUUUG [C89G U109G] the “polymerase ribozyme fitness (log ratio)” value was -5.16.
